In the RNAGym collection of RNA variant scans (doi:10.1101/gr.219683.116):

B1: mRNA-splicing (parent)
chain: AGUUGCUGCUGGGAGCUCCAGCACAGUGAAAUGGACAGAAGGGCAGAGCAA

Variants of: B1
Experiment: exon inclusion enrichment index; higher = more inclusion; WT1 exon 5 minigene, HEK293

First: AGUUCGCGUUGGGAGCUCCAGCACAGUGAAAUGGACAGAAGGGCAGAGCAA [G5C C6G U7C C9U]
Second: AGUUAGGGAUGGGAGCUCCAGCACAGUGAAAUGGACCUAAGGGCAGAGCAA [G5A C6G U7G C9A A37C G38U]
The “exon inclusion enrichment index” value of the first is higher: 2.47 for the first, 0.000751 for the second.

Compared with AGUUAGGGAUGGGAGCUACAGCACAGUGAAAUGGACAGAAGGGCAGAGCAA [G5A C6G U7G C9A C18A], AGUUCUUCUCGGGAGCUCCUUCACAGUGAAAUGGACAGAAGGGCAGAGCAA [G5C C6U G8C C9U U10C A20U G21U] is higher in “exon inclusion enrichment index” value: 0.000986 for the first, 1.12 for the second.

Compared with AGUUGACGACGGGAGCUCCAGCACAGUGAAAUGGACCUAAGGGCAGAGCAA [C6A U7C C9A U10C A37C G38U], AGUUGCUGCUGGGAGCUCCAGCACAGUGAAAUGGAACGAAGGGCAGAGCAA [C36A A37C] is lower in “exon inclusion enrichment index” value: 2.3 for the first, 0.209 for the second.

Going from AGUUUCUUUUGGGAGCUCCAGCACAGCCAAAUGGACAGAAGGGCAGAGCAA [G5U G8U C9U U27C G28C] to AGUUGACGACGGGAGCUCCAGCACAGCCAAAUGGACAGAAGGGCAGAGCAA [C6A U7C C9A U10C U27C G28C], the “exon inclusion enrichment index” value rises from 0.257 to 3.85.

Going from AGUUCGCGCCGGGAGCUCCAGCACAGUGAUGUGGACAGAAGGGCAGAGCAA [G5C C6G U7C U10C A30U A31G] to AGUUCUUCUCGGGAGCUCCAGCACAGUGAAAUAAACAGAAGGGCAGAGCAA [G5C C6U G8C C9U U10C G33A G34A], the “exon inclusion enrichment index” value falls from 3.75 to 0.246.

First: AGUUAGGGAUGGGAGCUCCAGCACAGUGAAAUGGACAGGCGGGCAGAGCAA [G5A C6G U7G C9A A39G A40C]
Second: AGUUGACGACGGGAGCUCCAUGACAGUGAAAUGGACAGAAGGGCAGAGCAA [C6A U7C C9A U10C G21U C22G]
The “exon inclusion enrichment index” value of the first is lower: 0.00397 for the first, 3.54 for the second.

First: AGUUGCGGAAGGGAGCUCCAGCACAGUGAAAUGGACAGAAGGGCAGAGCAA [U7G C9A U10A]
Second: AGUUAGGGAUGGGAGCUCCAGCACAGUGAAAUGGACAGAAGGGCGAAGCAA [G5A C6G U7G C9A A45G G46A]
The “exon inclusion enrichment index” value of the first is higher: 1 for the first, 0.0107 for the second.

First: AGUUAGGGAUUAGAGCUCCAGCACAGUGAAAUGGACAGAAGGGCAGAGCAA [G5A C6G U7G C9A G11U G12A]
Second: AGUUGCCUCUGGGAGCUCCAGCACAGUGAAAUGGACAGAAGGGCAGAGCAA [U7C G8U]
The “exon inclusion enrichment index” value of the first is lower: 0.00148 for the first, 1.05 for the second.

First: AGUUAUAUUCGGGAGCUCCAGCACAGUGAAAUGGACAGAAGGGCAGAGCAA [G5A C6U U7A G8U C9U U10C]
Second: AGUUGACGACGGGAGCUCCAGCACAGUGAAAUGGACAGAAGGGCACCGCAA [C6A U7C C9A U10C G46C A47C]
The “exon inclusion enrichment index” value of the first is lower: 0.453 for the first, 2.51 for the second.

Compared with AGUUCACACAGGGAGCUCCAGCACAGUGAAAUGGACAGAGCGGCAGAGCAA [G5C C6A U7C G8A U10A A40G G41C], AGUUCUUCUCGGGAGCUCCAGCACAGUGAAAUGGACAUCAGGGCAGAGCAA [G5C C6U G8C C9U U10C G38U A39C] is higher in “exon inclusion enrichment index” value: 0.666 for the first, 1.39 for the second.

Going from AGUUACCACCGGGAGCUCCAGCACAGUGAAAUGGUUAGAAGGGCAGAGCAA [G5A U7C G8A U10C A35U C36U] to AGUUGACGACGGGAGCUCCAGCACAGUGAAAUGGACAGAAGUACAGAGCAA [C6A U7C C9A U10C G42U G43A], the “exon inclusion enrichment index” value rises from 0.0422 to 3.84.

First: AGUUUCUUUUGGGAGCUCCAGCACAGUGAAAUGGACAGAAGGGCCUAGCAA [G5U G8U C9U A45C G46U]
Second: AGUUUCUUUUGGGAGCUCCAGCACAGUAGAAUGGACAGAAGGGCAGAGCAA [G5U G8U C9U G28A A29G]
The “exon inclusion enrichment index” value of the first is higher: 0.0571 for the first, 0.0263 for the second.

Going from AGUUGAAGAAGGGAGCUCCAGCACAGUGAAAUGGACAGAAAUGCAGAGCAA [C6A U7A C9A U10A G41A G42U] to AGUUACCACCGGGAGCUCCAGCACAGUGAAAUGGACAGAAGCGCAGAGCAA [G5A U7C G8A U10C G42C], the “exon inclusion enrichment index” value rises from 0.617 to 3.71.

Going from AGUUACCACCGGGAGCUCCAGCACAGUGAUUUGGACAGAAGGGCAGAGCAA [G5A U7C G8A U10C A30U A31U] to AAUUACCACCGGGAGCUCCAGCACAGUGAAAUGGACAGAAGGGCAGAGCAA [G2A G5A U7C G8A U10C], the “exon inclusion enrichment index” value rises from 1.86 to 3.39.

Going from AGAUUCUUUUGGGAGCUCCAGCACAGUGAAAUGGACAGAAGGGCAGAGCAA [U3A G5U G8U C9U] to AGUUUCAUUUGGGAGCUCCAGCACAGUGAAAUGGACAGAAGGGCAGAGCAA [G5U U7A G8U C9U], the “exon inclusion enrichment index” value falls from 0.513 to 0.343.

First: AGUUACUUAUGGGAGCUCCAGCACAGUGAAAUGGACAGAAGGGCAGAGCAA [G5A G8U C9A]
Second: AGUUUCUUUUGGGAGCUCCAGCACAGUGAAAUGGACAGUCGGGCAGAGCAA [G5U G8U C9U A39U A40C]
The “exon inclusion enrichment index” value of the first is lower: 0.187 for the first, 0.287 for the second.

Compared with AGUUCGCGCCGGGACUUCCAGCACAGUGAAAUGGACAGAAGGGCAGAGCAA [G5C C6G U7C U10C G15C C16U], AGUUGAAGAAGGGAGCUCCAGCACAGUGAAAUGGACAGAGAGGCAGAGCAA [C6A U7A C9A U10A A40G G41A] is lower in “exon inclusion enrichment index” value: 3.37 for the first, 0.23 for the second.

Compared with AGUUAUAUAUGGGAGCUCCAGCACAGCAAAAUGGACAGAAGGGCAGAGCAA [G5A C6U U7A G8U C9A U27C G28A], AGUUCACACAGGGAGCUCCAACACAGUGAAAUGGACAGAAGGGCAGAGCAA [G5C C6A U7C G8A U10A G21A] is lower in “exon inclusion enrichment index” value: 0.0919 for the first, 0.0465 for the second.

First: AGUUGAAGAAGGGAGCUCCAGCACAGUGAAAUGGACGGAAGGGCAGAGCAA [C6A U7A C9A U10A A37G]
Second: AGUUCACACAGGGAGCUCCAGCACAGUGAAAUGGUUAGAAGGGCAGAGCAA [G5C C6A U7C G8A U10A A35U C36U]
The “exon inclusion enrichment index” value of the first is higher: 1.54 for the first, 0.00092 for the second.

Compared with AGUUAUAUAUGGGAGCUCCAGCACAGUGAAAUGGACAACAGGGCAGAGCAA [G5A C6U U7A G8U C9A G38A A39C], AGUUGCAUCUGGGAGCUCCAGCACAGUGAAAUGGACAGAAGGGCAGAGCAA [U7A G8U] is higher in “exon inclusion enrichment index” value: 0.0573 for the first, 1.83 for the second.

Going from AGUUGCUGCUGGGAGCUCCAGCACAGUGAAAUGGACAGAAGGGCAACGCAA [G46A A47C] to AGUUCUUCUCGGGAGCUCCAGCCAAGUGAAAUGGACAGAAGGGCAGAGCAA [G5C C6U G8C C9U U10C A23C C24A], the “exon inclusion enrichment index” value rises from 0.547 to 2.31.

Going from AGUUCACACAGGGAGCUCCAGCACAGUGAAAUGGACAGAAGCCCAGAGCAA [G5C C6A U7C G8A U10A G42C G43C] to AGUUACCACCGCUAGCUCCAGCACAGUGAAAUGGACAGAAGGGCAGAGCAA [G5A U7C G8A U10C G12C G13U], the “exon inclusion enrichment index” value falls from 0.652 to 0.139.

Compared with AGUUAGGGAUGGGAGCUCCAGCACAGAUAAAUGGACAGAAGGGCAGAGCAA [G5A C6G U7G C9A U27A G28U], AGUUAGGGAUGGGAGCUCCCCCACAGUGAAAUGGACAGAAGGGCAGAGCAA [G5A C6G U7G C9A A20C G21C] is lower in “exon inclusion enrichment index” value: 0.00161 for the first, 0.000907 for the second.

Compared with AGUUCGCGCCGGGAGCUCCAGCACAGUGAAAUGGACAGAUCGGCAGAGCAA [G5C C6G U7C U10C A40U G41C], AGUUCUUCUCGGGAGCUCCAGACCAGUGAAAUGGACAGAAGGGCAGAGCAA [G5C C6U G8C C9U U10C C22A A23C] is lower in “exon inclusion enrichment index” value: 3.11 for the first, 2.99 for the second.

Compared with AGUUCACACAGGGAGCUCCAGCACAGUGAAAUGGAUAGAAGGGCAGAGCAA [G5C C6A U7C G8A U10A C36U], AGUUCUUCUCGGGAGCUCCAGCACAGUGAAAUGGACCUAAGGGCAGAGCAA [G5C C6U G8C C9U U10C A37C G38U] is higher in “exon inclusion enrichment index” value: 0.0372 for the first, 1.2 for the second.

In the case of AGUUUCUUUUGGGAGCUCCAGCACAGUGGGAUGGACAGAAGGGCAGAGCAA [G5U G8U C9U A29G A30G], the “exon inclusion enrichment index” value is reported as 0.0374.
